The source of these data is paper PMC4406585, “Generating Recombinant Antibodies against Putative Biomarkers of Retinal Injury” (PLoS ONE, 2015).

Assay [1] has as its target T1, Guanine Nucleotide-Binding Protein Beta 5 (GBB5), chicken, endogenous (Gallus gallus, UniProt A0A8V0ZF95).
T1 construct: expected size 38.8 kDa printed; also called chicken homolog; source: endogenous, chicken retina or whole eye homogenate
The assay is described as follows: far-Western, overlay or dot blot; western blot: retinal lysates resolved by SDS-PAGE, on PVDF; probed with 1 μg/mL scFv in PBS for 2 h; anti-Flag-HRP M2, ECL. Particulars: one partner purified.

For assay [2], the target named is T2, Guanine Nucleotide-Binding Protein Beta 5 (GBB5), mouse, endogenous (Mus musculus, UniProt P62881, strain).
T2 construct: also called mouse GBB5; source: endogenous, mouse retinal homogenate
Described as above. Particulars: one partner purified.

Assay [3] addresses T3, Guanine Nucleotide-Binding Protein Beta 5 (GBB5), rabbit, endogenous (Oryctolagus cuniculus, UniProt Q6PNB6).
T3 construct: expected size 38.7 kDa printed; also called rabbit GBB5; source: endogenous, rabbit retinal homogenate
The description is as above. The following applies: one partner purified.

For assay [4], the target named is T4, GBB5 peptide (Guanine Nucleotide-Binding Protein Beta 5) (Oryctolagus cuniculus peptide, synthetic, SMILES …).
T4 construct: four amino acid linker, printed in words: Glycine-Serine-Glycine-Serine; also called wild-type peptide; Ctrl; source: synthetic peptide
T4 chain: Biotin-GSGSKLHDVELHQVAERV-NH2
The assay is described as follows: photonic crystal biosensor (SRU Biosystems BIND); biotinylated peptide, 50 ng/well, on streptavidin-coated 96-well biosensor plate, blocked with 5% BSA; scFv in decreasing concentration in 7 wells in elution buffer; overnight end-point change in peak wavelength; dose response curve, EC50 used to estimate Kd. Particulars: both partners purified.

For assay [5], the target named is T4, GBB5 peptide (Guanine …). The assay is described as follows: ELISA; peptides at 25 nM on NeutrAvidin-coated plate; scFv at 30 nM, scFv-Fc at 10 nM in PBST; anti-FLAG-HRP, ABTS, 405 nm. The following applies: both partners purified.

*: point of attachment. Biotin = O=C1N[C@H]2[C@H](CS[C@H]2CCCCC(=O)*)N1

T2 sequence (P62881 whole entry, looked up, change not shown): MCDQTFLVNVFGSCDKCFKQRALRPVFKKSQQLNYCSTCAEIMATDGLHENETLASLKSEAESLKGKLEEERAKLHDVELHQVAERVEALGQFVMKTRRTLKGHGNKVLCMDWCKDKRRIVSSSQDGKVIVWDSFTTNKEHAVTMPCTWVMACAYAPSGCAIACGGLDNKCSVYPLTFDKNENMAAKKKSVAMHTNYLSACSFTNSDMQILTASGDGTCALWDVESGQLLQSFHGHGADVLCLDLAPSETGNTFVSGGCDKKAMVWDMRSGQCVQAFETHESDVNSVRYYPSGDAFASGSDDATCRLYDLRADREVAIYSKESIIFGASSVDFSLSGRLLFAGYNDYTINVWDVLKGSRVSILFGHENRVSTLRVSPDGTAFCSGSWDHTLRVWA
T3 sequence (Q6PNB6 whole entry): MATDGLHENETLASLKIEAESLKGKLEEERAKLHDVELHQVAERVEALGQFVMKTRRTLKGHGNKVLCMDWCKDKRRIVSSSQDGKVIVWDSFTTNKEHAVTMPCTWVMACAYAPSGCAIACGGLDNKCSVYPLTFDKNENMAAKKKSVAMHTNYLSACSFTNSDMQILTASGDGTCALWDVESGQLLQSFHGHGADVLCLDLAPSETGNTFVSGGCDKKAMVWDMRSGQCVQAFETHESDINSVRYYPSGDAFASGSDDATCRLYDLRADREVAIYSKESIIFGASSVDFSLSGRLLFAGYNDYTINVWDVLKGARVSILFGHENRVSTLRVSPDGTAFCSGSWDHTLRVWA

B1: anti-GBB5-H9 scFv (scFv, V domains shown)
VH: EVQLVQSGGGLVQPGGSLRLSCAASGFTVSSNYMSWVRQAPGKGLEWVSSISSSSSYIYYADSVKGRFTISRDNAKNSLYLQMNSLRAEDTAVYYCARSYPFDYWGQGTLVTVSS
VL: NFMLTQPHSVSESPGKAVTISCTGSSGDVARNYVQWYQQRPGSAPIIVIYEDTQRPSGVPDRFSGSIDSSSNSASLTISGLTTEDEADYYCQSYDGHNVIFGGGTKLTVL
notes: VL of clone H9, from a phage library of human B-cell cDNA; 14 amino acid linker of the library vector between VL and VH; VH of clone H9, from a phage library of human B-cell cDNA; Order VL-linker-VH; also called anti-GBB5-scFv H9; source: E. coli TG-1 (pKP300ΔIIIΔAP, OmpA signal to the periplasm, low phosphate media), purified (IMAC); not shown: FLAG, N-terminal, kept
With B1, the binding result in assay [1], in assay [2] and in assay [3] was “binds” throughout. Also, the EC50 with GBB5 peptide (Guanine …) [4] is approximately 300 nM.

B2: anti-GBB5-H9 scFv-Fc (Fc fusion, human)
VH: EVQLVQSGGGLVQPGGSLRLSCAASGFTVSSNYMSWVRQAPGKGLEWVSSISSSSSYIYYADSVKGRFTISRDNAKNSLYLQMNSLRAEDTAVYYCARSYPFDYWGQGTLVTVSS
VL: NFMLTQPHSVSESPGKAVTISCTGSSGDVARNYVQWYQQRPGSAPIIVIYEDTQRPSGVPDRFSGSIDSSSNSASLTISGLTTEDEADYYCQSYDGHNVIFGGGTKLTVL
notes: VL as in m1 (clone H9); 14 amino acid linker of the library vector between VL and VH; VH as in m1 (clone H9); H9 scFv coding region subcloned upstream of the Fc through NcoI and NotI; order after the scFv: Fc, (His)6, tri-FLAG; Homodimer through disulfide bonds of the Fc; also called Fc format of the H9 clone; bivalent Fc format; source: HEK-293 Freestyle cells, transiently transfected …
Consider B2, for which the “fold ELISA signal against the soluble scFv” value with GBB5 peptide (Guanine …) [5] is approximately 4.5 fold.
